Data from the DeepSol protein solubility set.

Test: soluble on expression in E. coli; label from the status in PepcDB or PDB records

| Sequence | soluble on expression in E. coli |
| --- | --- |
| MSLAIRVVCISDTHDLKVDIPRGDILIHAGDLTDGGTVSDIQKQLDWLKEQPHPIKVVVAGNHDSWFDQKSRPEEDARSGAKPDMDGLIYLESGLTVQKVKGRTVNIFGVPDIPEIGPKEFAFQYATDNHPWLSKVPPQTDILVTHCPPKHHLDLGLGDSNLLREVWRVKPRLHVFGHVHCAYGKESVFFDNFQQTYERIMSRPRRGPILDFIPNEAWLDEGHHHHHH | not soluble |
| MADSTPILFDRRLLAARLHRAAALGPAPFLLDRVAEEMDERLHAVLRDFTEVADLWTPGGLKLQRFPKLAHLAVDPSGSEALPFAPGSLDLVVSALALQFANDLPGVLAQLRRALKPDGLLLAALTGGETLTELRQAFASAEAEIEGGVSPRVAPAADLRDLGALLQRAGFALPVTDVDRVVVRYDHAFALMQDLRRMGATNVLIERRRTPLRRATLTRMAQIYADRFSDPDGRIRATFEIVWLSGWSPHESQQQPLKPGSAKVSLEEAVRGKRLEHHHHHH | not soluble |
| MININRYTLSNGLRVIHNEDNTTQMVALNLLYDVGARDEDPDHTGFAHLFEHLMFGGSIHVPDYDTPVQNAGGENNAWTNNDITNYYITLPRQNVETGFWLESDRMLSLDFNPRSLEVQRQVVIEEFKQRNLNQPYGDASHLLRALAYKVHPYQWPTIGKEISHIANATLEEVKAFFFKYYAPDNAILAVTGHITFEETVTLAEKWFGPIPRRNVAP | not soluble |
| MGSDKIHHHHHHMDIIDYLPQKMKAEAEAYMPCGLEEIRVRAGKQVQYMFAGGCRAGVYISHSDIEEMINYLSGYSFHAIAPQLAAGYFTVEGGHRVGIAGQMGCDGGKVTAVSEIASLNIRIAHQIRDVAMPLMPYIRDENSIYNTLVISRPGEGKTTFLRDCIRILSDGCDGKNALKVSVVDERSEIAACYLGVAQNDIGNSSDVLDNCPKSLGMRMLLRSMSPDVIAVDELGGEGDIEALNQLVSCGIRILGSVHGTNADDLRRKILPHAIERFVFIDHDEKGVRRYSIYDEAYRLLYSTVCGIGADKRLQQKKKGRYSDAV | not soluble |
| MGSDKIHHHHHHMQSLHGNCLIAYARHKYILTMVNGEYRYFNGGDLVFADASQIRVDKCVENFVFVSRDTLSLFLPMLKEEALNLHAHKKVSSLLVHHCSRDIPVFQEVAQLSQNKNLRYAEMLRKRALIFALLSVFLEDEHFIPLLLNVLQPNMRTRVCTVINNNIAHEWTLARIASELLMSPSLLKKKLREEETSYSQLLTECRMQRALQLIVIHGFSIKRVAVSCGYHSVSYFIYVFRNYYGMTPTEYQERSAQRLSNRDSAASIVAQGNFYGTDRSAEGIRL | not soluble |
| MELFLAGRRVLVTGAGKGIGRGTVQALHATGARVVAVSRTQADLDSLVRECPGIEPVCVDLGDWEATERALGSVGPVDLLVNNAAVALLQPFLEVTKEAFDRSFEVNLRAVIQVSQIVARGLIARGVPGAIVNVSSQCSQRAVTNHSVYCSTKGALDMLTKVMALELGPHKIRVNAVNPTVVMTSMGQATWSDPHKAKTMLNRIPLGKFAEVEHVVNAILFLLSDRSGMTTGSTLPVEGGFWAC | soluble |
| MGSDKIHHHHHHMNTLANWKKFLLVAVIICFLVPIMTKAEIAEADTSSELIVSEAKNLLGYQYKYGGETPKEGFDPSGLIQYVFSKADIHLPRSVNDQYKIGTAVKPENLKPGDILFFKKEGSTGTVPTHDALYIGDGQMVHSTQSKGVIITNYKKSSYWSGTYIGARRIAADPATADVPVVQEAEKYIGVPYVFGGSTPSEGFDCSGLVQYVFQQALGIYLPRSAEQQWAVGEKVAPQNIKPGDVVYFSNTYKTGISHAGIYAGAGRFIQASRSEKVTISYLSEDYWKSKMTGIRRFDNLTIPKENPIVSEATLYVGEVPYKQGGVTPETGFDTAGFVQYVYQKAAGISLPRYATSQYNAGTKIEKADLKPGDIVFFQSTSLNPSIYIGNGQVVHVTLSNGVTITNMNTSTYWKDKYAGSIRVQ | not soluble |
| MNKRIVICADGTWNRPEKDLKVDFPTNVLRLARAISPIAADGKPQQVFYDWGVGSYYDEVIGGATGRGLHKNIMDGYRYIVQNYSPGDEIYLFGFSRGAYTVRCLCGLINNCGILKRPEARLIQQAFDHYKKSSAPFAPSGDKSVEFRHEHCHESREIKFVGVWDTVGAMGIPISFLGLFEDKDEFYDTKIGRNVRVARHALAIDEHRSDFEPTIWQLRDNMDMQQVWFAGAHSNVGGSYLPDKDGSLLSDNALAWMIAEAERFNLSLEPHLTAGLEHHHHHH | not soluble |
| MGSDKIHHHHHHMRIQQLHYIIKIVECGSMNEAAKQLFITQPSLSNAVKDLEMEMGITIFNRNPKGITLTKDGVEFLSYARQIIEQTSLLEDRYKNHNTGRELFSVSSQHYAFVVNAFVSLLKRTDMTRYELFLRETRTWEIIDDVKNFRSEIGVLFINDYNRDVLTKLFDDNHLTASPLFKAQPHIFVSKSNPLATKSLLSMDDLRDFPYLSYDQGIHNSFYFSEEMMSQMPHNKSIVVSDRATLFNLMIGLDGYTVASGILNSNLNGDQIVAIPLDVPDEIDIVFIKHEKANLSKMGERFIEYLLEEVTFD | not soluble |
| MSSRVLTPDVVGIDALVHDHQTVLAKAEGGVVAVFANNAPAFYAVTPARLAELLALEEKLARPGSDVALDDQLYQEPQAAPVAVPMGKFAMYPDWQPDADFIRLAALWGVALREPVTTEELASFIAYWQAEGKVFHHVQWQQKLARSLQIGRASNGGLPKRDVNTVSEPDSQIPPGFRG | soluble |
| MGSDKIHHHHHHMEKDRHEIEIFKIDQMFIGDSQEELIKQGEGRRKEHPIAAISTFNPVKRDVFQLIKLTEEKMIPELLGMRHKRMMQNPFSYFRATAGIMEKDLRQFPDGQSHIPVIICGDSHLTNFGFFASPERHLLFGLNDFDEARIGNWEFDLKRLLTSVVLIGRINGYPKEQLDGILAESVHSYRRGIKYANSLPLLDRFNLSYSVDDLLGQMTDNEQMKRVLLKVADRAPKKNSDAVVKKFTEKTEDGRLRFKKNPPRARRVSQKVYAELMASLEDYQKSVADDIRVLLINYEVTDIIRYSVGVGSWGTRCYLALLTGKDGSHLVLQIKEALPLRYNLSALTVEESQAQGKGEGKRIITAQRVLQTYHDPFLGAMEAGGRSFYVRQFRDMKDSIDPLNLDQESFSAYCNMCAFILAIAHYQSPTAPMIYGYVHKQKELDTGLAHWAVKYADQMEADYTCFAKYLQGEGDEE | not soluble |
| MQTLKYISGYSPDIQRQVQQLLESGKLGDVLLRRHPQVHEIRSDKALYDYTQGIKNQFLRQSSPLSKVIFDDKISMSHHALGLHSYVARVQGNKIKAKNEIRISSRLKRVPEPLLRMVVVHELAHLKEKDHNKAFYNLCTYMEPDYHQFEFDLRLLLTCIDANQSPYATNSINLEHHHHHH | soluble |
| MGSDKIHHHHHHMPVTAIFSPDTPAMGIGWRHPHYAGLLQTGPALDFIEVHSENFFAPGGAARAVLRQGREHYPVSLHGTGLSLGSACGVDEWHLAQLAELVQEIDPVRVSDHASFARGHLPGTDAPVHAADLLPVPFTREALAVMCSNVQRVQERLKRPIAVENLSAYLDWRAADMRETEFLAALAQRTGCSLLVDVNNLYVNAQNAWLRGALNSAPGDADAALASCRDWIDQIAASPVAELHLAGHAHLGDIVIDDHGSRVCAEVWQLYRHALARLGPVPTLIEWDTDVPALSVLLDEVARARGIAQGRPATRQPSAEARP | not soluble |
| MNHKVHHHHHHIEGRHMAVVKEVLEIAEKIKNMEIRGAGKIARSAAYALQLQAEKSKATNVDEFWKEMKQAAKILFETRPTAVSLPNALRYVMHRGKIAYSSGADLEQLRFVIINAAKEFIHNSEKALERIGEFGAKRIEDGDVIMTHCHSKAAISVMKTAWEQGKDIKVIVTETRPKWQGKITAKELASYGIPVIYVVDSAARHYMKMTDKVVMGADSITVNGAVINKIGTALIALTAKEHRVWTMIAAETYKFHPETMLGQLVEIEMRDPTEVIPEDELKTWPKNIEVWNPAFDVTPPEYVDVIITERGIIPPYAAIDILREEFGWALKYTEPWED | soluble |
| MGSDKIHHHHHHMRGEVKKIIEAIGDIFIGHEDVIRKVLAVALVNGNILFEDYPGLGKTLLAKAFAKILGLKFKRIQFTPDLLPADIIGTKVWKPEKGAFEVVKGPIFTNILLADEINRAPPKTQSALLEAMEERQVTIEGETFKLERPFFIIATQNPLELEGTYPLPEAQLDRFLVRLNIGYPRNEEDELEILKARLRWGKDDPTSDISPIISREDFIRMQEEVERGVIIHDDILRYIVRLVRRIREDERIEAGPSPRGGLALMKLAKANAFIEGRSYVIPDDVKYFAVEALAHRIVLKPEYSLERGIAEEIIREVLEEVPVPKDIRY | not soluble |
| PRNSKNDGVDTAIYHHKLRDQVLKALYDVLAKESEHPPQSILHTAKAIESEMNKVNNCDTNEAAYKARYRIIYSNVISKNNPDLKHKIANGDITPEFLATCDAKDLAPAPLKQKIEEIAKQNLYNAQGATIERSVTDRFTCGKCKEKKVSYYQLQTRSADEPLTTFCTCEACGNRWKFS | soluble |
| MIQRNSTLAVLRESFVAGSDENLSPIMHHLWKMEGGAIYFCRSGWAHVTIDLKEYEIVKNTQVVLLPGSIIRINGSSSDFTASFFGFPKDMFREACLRLEPTFFRFMKEKPCYVLPDKDTGAINGLIQATTAIYNDRENRFRNQIAKNHLQSFMLDIYDKCYRYFDKQEIEGGSRQDEIFKKFVALVHENCISQREVNFYANELCISTKYLTGICRSVTGDSAKKIIDDFAILEIKVLLQSTELTMQDIADRLGFPDQSYLGRYFKRHEGMSPREYQNRYVI | not soluble |
| MKMNEEKAVVVFSGGQDSTTCLFWAKKQFGEVEAVTFDYGQRHRREIDVAQAIADELGVRHTVLDLSLLGQLAPNALTRRDIAIEQKEGELPTTFVDGRNLLFLSFAAVFAKQRGARHIVTGVCETDFSGYPDCRDVFIKSLNVTLNLAMDYEFVIHTPLMWLTKAETWKLADELGALEFIRTKTLTCYNGIIADGCGECPACVLRKRGLDEYLREKEGVESR | not soluble |
| SKGFIDQYPNYSVGLGNLRSLKGDTCNLANDVLVETNTNESFLTPLTGTLGDSLTNDDVRGFDPNRISPWAFTPENRPEALGAANSTGDGSDTAAADSDASNTAAGADSDGSAAKADAASDNQEEAAKKKETHRADQGVNGSHSRLPFNLDYRTVPVLGSWTDGKQEIAEATSSWFKLPKANDNTPLVVVSAAGSIKHKDVNGIVENGQKIVLEYGRSNTGGSLGKAEKLGELDLLDSGIDSTWRNLRIPLSDIPDDADVIRIHAKDTSLDPDEWIAFTPPRVPTMDTLANQFPASTPGLLDWAVPLQFPCQRTFNHYAGVAEIPEYRISADAKGKQSGMNFQDFAGGGVTGIAETINSSYELPSYSKNDWVRDWGSIKMYKLRTNSKGEAPDVATVDTETITRSGLWYPGRMNIDTKVTKN | not soluble |
| MSLKIKHEHIRMAMNAWAHPDGEKVPAAEITRAYFELGMTFPELYDDSHPEALARNTQKIFRWVEKDTPDAVEKIQALLPAIEKSMPPLLVARMRSHSSAYFRELVETRERLVRDADDFVAVAIAGFNQMNRGGPAGNIVAVHEGHHHHHH | soluble |
| MPKIYTKTGDKGFSSTFTGERRPKDDQVFEAVGTTDELSSAIGFALELVTEKGHTFAEELQKIQCTLQDVGSALATPCSSAREAHLKYTTFKAGPILELEQWIDKYTSQLPPLTAFILPSGGKISSALHFCRAVCRRAERRVVPLVQMGETDANVAKFLNRLSDYLFTLARYAAMKEGNQEKIYMKNDPSAESEGL | soluble |
| MVRNRFIRKMKKNLFKSNHLSYLKSKWKVKITGQIKMDFDNLLNLEEQYYQEGFLEGQNENIKQSFLEGKQYGLQVGFQRFTLLGQMEGLCDVIESYGLHSPTLEKNIHTIRTLMKGLKMNNDDESVMEFERVLIKLKNKFRTILITLHRLVKDKRTPTVTFEVFEDVSRAIAGEIRGFVENEDIAKNKTKQNQAQSW | soluble |
